Data as given in US9969998B2, “Compositions of adenosine deaminase-2 (ADA2), variants thereof and methods of using same” (Halozyme, Inc., priority 2014, dated 2018).

Assay: Heparin binding ELISA (immobilized heparin)
Settings: Example 8
Description: Heparin binding of a protein, such as any ADA2 provided herein, can also be assessed using enzyme-linked immunosorbant assay (ELISA) based methods. ELISA-based methods use heparin immobilized on a surface, such as a microtiter plate. The protein of interest which binds to heparin, such as any ADA2 provided herein, is incubated in the heparin coated plate, and binding is detected using antibodies that detect the protein of interest, such as any ADA2 provided herein.
For example, a 96-well plate coated with 100 μL of 200 μg/mL heparin sodium salt (Calibochem, EMD Milipore, Billerica, Mass.; Cat. No. 375095) in Na2CO3 buffer (pH 9.6) can be used to test ADA2 binding to heparin. […] The optical density (OD) of each reaction is measured on a plate reader.
In another example, heparin is immobilized by incubating Streptavidin-coated microtiter plates, such as the Streptavidin-coated 96-well plate (Thermo Fisher Scientific, Rockford, Ill.; Cat. No. 15520), with biotinylated heparin, such as biotin-heparin (Sigma-Aldrich, St. Louis, Mo.; Cat No. B9806-10MG). […] The optical density (OD) of each reaction is measured on a plate reader. […]

B1: PEGylated ADA2: ADA2 conjugate that is a PEGylated ADA2 (conjugate, UniProt Q9NZK5 30-511, looked up)
Adenosine deaminase 2: IDETRAHLLLKEKMMRLGGRLVLNTKEELANERLMTLKIAEMKEAMRTLIFPPSMHFFQAKHLIERSQVFNILRMMPKGAALHLHDIGIVTMDWLVRNVTYRPHCHICFTPRGIMQFRFAHPTPRPSEKCSKWILLEDYRKRVQNVTEFDDSLLRNFTLVTQHPEVIYTNQNVVWSKFETIFFTISGLIHYAPVFRDYVFRSMQEFYEDNVLYMEIRARLLPVYELSGEHHDEEWSVKTYQEVAQKFVETHPEFIGIKIIYSDHRSKDVAVIAESIRMAMGLRIKFPTVVAGFDLVGHEDTGHSLHDYKEALMIPAKDGVKLPYFFHAGETDWQGTSIDRNILDALMLNTTRIGHGFALSKHPAVRTYSWKKDIPIEVCPISNQVLKLVSDLRNHPVATLMATGHPMVISSDDPAMFGAKGLSYDFYEVFMGIGGMKADLRTLKQLAMNSIKYSTLLESEKNTFMEIWKKRWDKFIADVATK
modifications: PEG
  heparin binding compared to the corresponding non-PEGylated ADA2: reduced heparin binding
